Results reported in the supplement of paper PMC10065799, “High-throughput profiling of sequence recognition by tyrosine kinases and SH2 domains using bacterial peptide display” (eLife, 2023).

Legend:
Fyn = Fyn (UniProt P06241); assay: phosphorylation enrichment, bacterial display (enrichment ratio); higher = better substrate or ligand; peptides without Tyr show the background
MERTK = MERTK (UniProt Q12866); assay: as above
EPHB1 = EPHB1 (UniProt P54762); assay: as above
Fer (mouse) = assay: as above
EPHB2 = EPHB2 (UniProt P29323); assay: as above
Fes = Fes (UniProt P07332); assay: as above
Sequence of Fes (P07332 whole entry, looked up): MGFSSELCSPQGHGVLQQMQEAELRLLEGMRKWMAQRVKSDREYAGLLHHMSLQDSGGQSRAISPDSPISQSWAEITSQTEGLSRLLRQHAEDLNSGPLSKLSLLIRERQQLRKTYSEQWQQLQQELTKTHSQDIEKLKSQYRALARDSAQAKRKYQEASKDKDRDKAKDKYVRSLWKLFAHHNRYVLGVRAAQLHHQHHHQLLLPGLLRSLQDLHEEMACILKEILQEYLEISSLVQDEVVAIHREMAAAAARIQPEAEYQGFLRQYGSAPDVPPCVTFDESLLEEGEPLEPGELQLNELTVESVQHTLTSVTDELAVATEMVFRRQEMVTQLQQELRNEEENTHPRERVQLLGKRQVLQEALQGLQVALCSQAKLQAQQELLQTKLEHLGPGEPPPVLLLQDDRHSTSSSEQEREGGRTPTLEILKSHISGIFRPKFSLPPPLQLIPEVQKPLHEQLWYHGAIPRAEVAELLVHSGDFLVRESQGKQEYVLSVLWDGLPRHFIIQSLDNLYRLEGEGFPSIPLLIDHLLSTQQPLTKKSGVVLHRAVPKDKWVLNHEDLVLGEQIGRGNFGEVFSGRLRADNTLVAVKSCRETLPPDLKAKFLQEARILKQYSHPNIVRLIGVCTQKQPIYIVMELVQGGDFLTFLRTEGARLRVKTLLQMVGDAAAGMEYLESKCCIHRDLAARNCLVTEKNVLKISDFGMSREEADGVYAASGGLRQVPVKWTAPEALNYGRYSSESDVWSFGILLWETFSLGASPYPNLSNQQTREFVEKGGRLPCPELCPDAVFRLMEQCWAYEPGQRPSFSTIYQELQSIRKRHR

c-Abl (mouse) = assay: as above
FGFR1 = FGFR1 (UniProt P11362); assay: as above
c-Src = assay: as above
Jak2 = Jak2 (UniProt O60674); assay: as above
Sequence of Jak2 (O60674 whole entry, looked up): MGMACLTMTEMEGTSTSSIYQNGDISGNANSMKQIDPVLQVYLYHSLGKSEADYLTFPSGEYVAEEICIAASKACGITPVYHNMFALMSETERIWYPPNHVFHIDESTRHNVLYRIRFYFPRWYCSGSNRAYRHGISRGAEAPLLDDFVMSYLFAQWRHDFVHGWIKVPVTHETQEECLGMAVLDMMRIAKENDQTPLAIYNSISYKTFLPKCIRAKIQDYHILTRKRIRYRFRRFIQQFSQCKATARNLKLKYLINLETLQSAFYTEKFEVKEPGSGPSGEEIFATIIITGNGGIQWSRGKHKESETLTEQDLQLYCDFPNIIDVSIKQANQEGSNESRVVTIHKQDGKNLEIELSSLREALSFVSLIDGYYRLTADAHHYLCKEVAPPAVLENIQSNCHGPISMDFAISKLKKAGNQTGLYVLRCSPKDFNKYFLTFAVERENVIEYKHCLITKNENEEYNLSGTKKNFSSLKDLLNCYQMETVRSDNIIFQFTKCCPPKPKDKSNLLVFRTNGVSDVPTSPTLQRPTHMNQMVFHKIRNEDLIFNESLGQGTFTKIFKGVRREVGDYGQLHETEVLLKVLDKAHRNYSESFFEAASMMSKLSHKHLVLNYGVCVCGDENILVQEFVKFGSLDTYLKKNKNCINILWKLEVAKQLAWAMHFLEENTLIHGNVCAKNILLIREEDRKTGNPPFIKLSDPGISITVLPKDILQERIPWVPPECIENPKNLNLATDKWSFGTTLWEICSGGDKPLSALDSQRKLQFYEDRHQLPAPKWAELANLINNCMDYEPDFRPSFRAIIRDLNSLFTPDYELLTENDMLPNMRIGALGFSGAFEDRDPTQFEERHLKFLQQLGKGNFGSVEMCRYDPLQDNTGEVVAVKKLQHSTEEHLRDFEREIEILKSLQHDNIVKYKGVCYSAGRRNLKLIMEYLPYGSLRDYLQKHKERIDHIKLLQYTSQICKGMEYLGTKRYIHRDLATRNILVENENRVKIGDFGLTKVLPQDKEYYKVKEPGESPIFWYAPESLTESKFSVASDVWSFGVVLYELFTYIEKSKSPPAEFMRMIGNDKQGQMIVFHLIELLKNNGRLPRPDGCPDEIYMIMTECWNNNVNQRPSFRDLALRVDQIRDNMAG

Hck = Hck (UniProt P08631); assay: as above
Sequence of Hck (P08631 whole entry, looked up): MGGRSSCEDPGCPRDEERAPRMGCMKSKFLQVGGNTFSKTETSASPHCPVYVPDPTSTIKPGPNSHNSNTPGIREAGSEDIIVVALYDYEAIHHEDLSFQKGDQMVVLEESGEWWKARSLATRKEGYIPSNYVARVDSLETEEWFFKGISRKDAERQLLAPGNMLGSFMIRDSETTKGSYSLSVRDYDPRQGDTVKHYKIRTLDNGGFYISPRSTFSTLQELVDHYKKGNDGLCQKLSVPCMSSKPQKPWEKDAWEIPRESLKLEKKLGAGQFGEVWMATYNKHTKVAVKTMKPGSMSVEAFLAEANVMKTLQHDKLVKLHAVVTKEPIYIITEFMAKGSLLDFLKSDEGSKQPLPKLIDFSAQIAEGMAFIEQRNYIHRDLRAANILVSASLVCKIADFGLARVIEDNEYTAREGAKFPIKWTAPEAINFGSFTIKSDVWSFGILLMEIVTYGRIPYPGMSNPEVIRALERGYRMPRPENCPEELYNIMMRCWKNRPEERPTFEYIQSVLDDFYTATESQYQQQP

AncSZ = assay: as above
FGFR3 = FGFR3 (UniProt P22607); assay: as above
Sequence of FGFR3 (P22607 whole entry, looked up): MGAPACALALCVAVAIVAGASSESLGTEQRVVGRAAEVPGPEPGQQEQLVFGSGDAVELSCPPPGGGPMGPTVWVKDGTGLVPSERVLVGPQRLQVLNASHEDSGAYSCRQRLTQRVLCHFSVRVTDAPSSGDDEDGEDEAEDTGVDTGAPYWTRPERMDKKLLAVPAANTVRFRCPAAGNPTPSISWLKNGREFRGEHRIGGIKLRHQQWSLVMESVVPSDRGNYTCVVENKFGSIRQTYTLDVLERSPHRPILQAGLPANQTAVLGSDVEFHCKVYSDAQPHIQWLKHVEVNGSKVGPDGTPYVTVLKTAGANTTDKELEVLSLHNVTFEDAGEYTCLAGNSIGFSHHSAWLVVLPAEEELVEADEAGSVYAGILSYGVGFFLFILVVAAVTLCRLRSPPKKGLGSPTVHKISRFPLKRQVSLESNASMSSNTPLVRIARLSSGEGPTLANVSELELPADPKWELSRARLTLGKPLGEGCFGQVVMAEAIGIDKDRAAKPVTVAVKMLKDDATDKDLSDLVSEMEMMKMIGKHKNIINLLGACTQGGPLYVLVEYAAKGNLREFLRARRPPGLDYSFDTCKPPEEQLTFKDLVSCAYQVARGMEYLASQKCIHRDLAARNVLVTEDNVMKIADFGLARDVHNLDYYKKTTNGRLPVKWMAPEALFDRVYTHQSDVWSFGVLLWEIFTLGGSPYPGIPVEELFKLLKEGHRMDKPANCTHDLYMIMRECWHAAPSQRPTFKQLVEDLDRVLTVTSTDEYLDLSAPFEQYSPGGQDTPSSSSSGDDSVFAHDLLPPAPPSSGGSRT

Grb2 SH2 = Grb2 SH2 (UniProt P62993); assay: SH2 binding enrichment of the phosphorylated peptide, bacterial display (enrichment ratio); higher = better substrate or ligand; peptides without Tyr show the background
Sequence of Grb2 SH2 (P62993 whole entry, looked up): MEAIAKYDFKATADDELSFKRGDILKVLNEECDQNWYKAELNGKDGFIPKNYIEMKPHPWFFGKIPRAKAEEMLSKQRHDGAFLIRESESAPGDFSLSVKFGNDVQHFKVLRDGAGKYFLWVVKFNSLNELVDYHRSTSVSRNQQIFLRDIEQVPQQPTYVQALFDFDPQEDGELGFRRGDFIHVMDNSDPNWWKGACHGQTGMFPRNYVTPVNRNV

c-Src SH2 = assay: as above
SHP2-C SH2 = assay: as above
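Wherever SH2 binding enrichment of the phosphorylated peptide, bacterial display is given: peptide library displayed on the E. coli surface as eCPX fusions, selected cells deep-sequenced, score is each peptide's frequency after selection divided by its frequency in the input.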
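Wherever phosphorylation enrichment, bacterial display is given: 11-residue human phosphosite peptides and single-mutation variants displayed on the E. coli surface, counted by deep sequencing, each peptide's frequency after selection divided by its frequency in the unselected input library; frequency after pTyr selection over input frequency; kinase dosed for 20-30% of maximal phosphorylation in three min.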

Sequence of Fyn (P06241 whole entry, looked up): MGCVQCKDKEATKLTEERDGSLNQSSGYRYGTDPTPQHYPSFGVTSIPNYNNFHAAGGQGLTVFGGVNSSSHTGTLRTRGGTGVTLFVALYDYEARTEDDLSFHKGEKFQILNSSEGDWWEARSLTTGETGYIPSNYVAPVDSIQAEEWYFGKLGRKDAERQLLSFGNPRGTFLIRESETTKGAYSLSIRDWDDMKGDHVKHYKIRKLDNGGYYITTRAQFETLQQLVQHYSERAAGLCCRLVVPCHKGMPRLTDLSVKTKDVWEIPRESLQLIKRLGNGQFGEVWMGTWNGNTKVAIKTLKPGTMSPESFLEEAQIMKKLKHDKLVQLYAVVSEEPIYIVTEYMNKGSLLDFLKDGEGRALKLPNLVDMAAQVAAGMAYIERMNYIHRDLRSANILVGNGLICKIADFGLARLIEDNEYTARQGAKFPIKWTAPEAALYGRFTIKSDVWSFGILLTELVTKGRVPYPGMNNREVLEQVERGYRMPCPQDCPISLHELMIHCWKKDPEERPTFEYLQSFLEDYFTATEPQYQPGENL
Sequence of EPHB1 (P54762 whole entry, looked up): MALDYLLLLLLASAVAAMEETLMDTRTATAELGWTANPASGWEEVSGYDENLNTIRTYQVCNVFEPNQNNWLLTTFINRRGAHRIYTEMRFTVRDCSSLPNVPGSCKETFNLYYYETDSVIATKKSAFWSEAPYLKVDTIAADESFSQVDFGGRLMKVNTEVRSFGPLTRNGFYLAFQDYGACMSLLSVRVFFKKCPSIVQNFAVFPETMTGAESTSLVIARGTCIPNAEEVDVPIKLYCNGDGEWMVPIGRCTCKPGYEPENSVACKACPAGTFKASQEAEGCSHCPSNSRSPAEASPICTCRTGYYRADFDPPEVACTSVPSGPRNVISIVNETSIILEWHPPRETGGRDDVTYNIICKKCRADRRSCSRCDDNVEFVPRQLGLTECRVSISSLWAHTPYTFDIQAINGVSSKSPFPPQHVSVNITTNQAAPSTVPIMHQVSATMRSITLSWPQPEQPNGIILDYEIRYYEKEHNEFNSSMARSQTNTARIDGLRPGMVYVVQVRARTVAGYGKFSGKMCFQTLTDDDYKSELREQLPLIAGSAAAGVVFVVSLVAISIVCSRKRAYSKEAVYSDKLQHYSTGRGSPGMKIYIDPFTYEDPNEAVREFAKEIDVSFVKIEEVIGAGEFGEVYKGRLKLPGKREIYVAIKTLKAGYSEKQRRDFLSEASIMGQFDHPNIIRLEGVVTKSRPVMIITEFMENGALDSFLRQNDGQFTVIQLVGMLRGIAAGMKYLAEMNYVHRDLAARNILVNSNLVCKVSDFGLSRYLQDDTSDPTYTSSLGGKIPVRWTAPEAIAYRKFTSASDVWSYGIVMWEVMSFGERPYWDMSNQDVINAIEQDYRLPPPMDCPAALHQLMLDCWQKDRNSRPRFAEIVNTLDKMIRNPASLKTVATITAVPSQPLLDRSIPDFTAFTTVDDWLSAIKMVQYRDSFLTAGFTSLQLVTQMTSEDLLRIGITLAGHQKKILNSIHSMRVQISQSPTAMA

Row | Sequence | phosphorylation enrichment (Fyn) | phosphorylation enrichment (MERTK) | phosphorylation enrichment (EPHB1) | phosphorylation enrichment (Fer (mouse)) | phosphorylation enrichment (EPHB2) | phosphorylation enrichment (Fes) | phosphorylation enrichment (c-Abl (mouse)) | phosphorylation enrichment (FGFR1) | phosphorylation enrichment (c-Src) | phosphorylation enrichment (Jak2) | phosphorylation enrichment (Hck) | phosphorylation enrichment (AncSZ) | phosphorylation enrichment (FGFR3) | SH2 binding enrichment (Grb2 SH2) | SH2 binding enrichment (c-Src SH2) | SH2 binding enrichment (SHP2-C SH2)
1 | AISEGYKDFRA [CDA_Y79_V75I] | 0.323 | 0.382 | 0.353 | 0.313 | 0.415 | 0.638 | 0.622 | 0.425 | 0.499 | 0.617 | 0.405 | 0.617 | 0.524 | 0.829 | 0.31 | 0.536
2 | SVVVCYEPPEV [TP53_Y220_P219C] | 0.573 | 0.457 | 0.751 | 0.678 | 0.697 | 1.19 | 0.849 | 0.509 | 0.518 | 1.07 | 0.616 | 1.78 | 0.78 | 0.814 | 0.584 | 0.656
3 | DGSALYTGSAL [COL6A3_Y524] | 0.84 | 0.404 | 0.418 | 0.643 | 0.439 | 0.638 | 0.459 | 0.313 | 0.536 | 0.591 | 0.858 | 0.612 | 0.474 | 0.713 | 0.382 | 0.641
4 | LNFNEYFRDLN [HPRT1_Y198_D194N_YF] | 0.866 | 0.972 | 1.23 | 1.03 | 1.01 | 2.1 | 2.15 | 1.18 | 1.15 | 2.25 | 0.99 | 1.78 | 0.803 | 1.11 | 0.608 | 0.955
5 | NHQFDYTFHWT [CSNK1A1_Y294_D297H_YF] | 0.507 | 0.573 | 1.55 | 5.97 | 1.3 | 1.08 | 0.803 | 3.83 | 0.996 | 1.09 | 0.47 | 1.49 | 2.26 | 1.09 | 0.523 | 1.05
6 | KDFTIHNPNLL [VANGL1_Y290_Y290H] | 0.369 | 0.453 | 0.516 | 0.353 | 0.366 | 0.829 | 0.574 | 0.424 | 0.439 | 0.654 | 0.392 | 0.698 | 0.561 | 0.812 | 0.444 | 0.553
7 | EFISECCGEII [EZH2_Y641_Y641C] | 0.498 | 0.503 | 0.672 | 0.508 | 0.695 | 1.18 | 1.24 | 0.723 | 0.472 | 1.07 | 0.55 | 1.27 | 0.724 | 0.954 | 0.501 | 0.739
8 | CKLVDYDSARH [BIN1_Y150_R145C] | 0.463 | 0.381 | 0.505 | 0.401 | 0.447 | 0.909 | 0.61 | 0.395 | 0.372 | 0.66 | 0.414 | 0.777 | 0.624 | 0.845 | 0.564 | 0.592
9 | EEVKAYLDFGE [CHAC2_Y78_R82G] | 0.448 | 0.422 | 0.719 | 0.558 | 0.535 | 1.32 | 0.944 | 0.473 | 0.574 | 1.62 | 0.564 | 1.3 | 0.942 | 0.73 | 0.383 | 0.59
10 | GFILMYDITNE [RAB3C_Y110] | 0.526 | 0.678 | 1.06 | 0.692 | 1.6 | 1.66 | 0.8 | 0.49 | 0.559 | 1.38 | 0.633 | 1.33 | 0.975 | 1.05 | 0.674 | 0.962
11 | QGLMPYGQPRP [SRRT_Y798] | 0.488 | 0.596 | 0.568 | 0.424 | 0.513 | 0.863 | 0.725 | 0.696 | 0.883 | 0.601 | 0.563 | 0.853 | 0.527 | 0.955 | 0.357 | 0.653
12 | CRAVKYLQMVR [AVPR2_Y117_G122R] | 0.459 | 0.331 | 0.499 | 0.455 | 0.467 | 0.878 | 0.733 | 0.436 | 0.401 | 1.2 | 0.417 | 0.882 | 0.527 | 1.01 | 0.62 | 1.25
13 | SAPPSYEETVA [LITAF_Y23] | 0.645 | 0.414 | 0.6 | 0.531 | 0.636 | 1.09 | 0.727 | 0.65 | 0.398 | 0.828 | 0.569 | 1.1 | 0.672 | 0.761 | 0.909 | 0.975
14 | SETDDYAEIIV [PTK2_Y397_D402V] | 0.519 | 0.524 | 0.83 | 0.82 | 1.04 | 1.17 | 0.677 | 1.16 | 0.61 | 1.09 | 0.655 | 1.4 | 1.2 | 0.975 | 0.795 | 0.761
15 | TKDTFYKQPMF [GBA_Y451] | 0.419 | 0.385 | 0.257 | 0.362 | 0.37 | 0.638 | 0.954 | 0.389 | 0.42 | 0.535 | 0.39 | 0.583 | 0.42 | 0.571 | 0.401 | 0.692
16 | LENSTYQFIHV [CRB1_Y760_R764H_YF] | 3.24 | 10 | 9.73 | 24.8 | 2.92 | 2.22 | 1.56 | 7.91 | 4.21 | 1.19 | 8.87 | 1.77 | 4.82 | 0.94 | 0.456 | 0.652
